Patent US7063946B2, “Methods, reagents, kits and apparatus for protein function analysis” (Meso Scale Technologies, LLC., priority 2001, dated 2006)
Blank lines part the entries; values can stand above or below the molecule they belong to.

Columns and labels:
Assay type in all cases: biochemical
pEY = assay: In vitro kinase library screen: activity towards pEY; conditions: 5 ul of expressed protein
Summary of the method: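 ECL read-out: phosphorylated poly(Glu-Tyr) bound on a PY20-coated plate, then probed with Sulfo-TAG-labelled anti-phosphotyrosine. The reaction beforehand ran overnight at room temperature with 100 µM ATP, 5 mM MgCl2, 5 mM MnCl2 and 5 nM pEY substrate. Enzymes were TnT-expressed, biotinylated and immobilised, with stringent washes.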

pEY (poly Glu-Tyr) = assay: Tyrosine kinase activity assay of immobilized in vitro translated protein towards pEY
Experimental: Proteins were produced in an in vitro transcription and translation reaction. […] The unbound components of the reaction containing endogenous kinases were removed by three washes with TT-buffer (25 mM Tris-HCl buffer pH 7.4 and 0.004% Triton), two five minutes washings with high-salt wash buffer (25 mM Tris-HCl buffer pH 7.4, 0.004% Triton, 1M NaCl and 5 mM DTT) and 3 more washes with TT-buffer. To these immobilized and purified proteins a tyrosine kinase substrate, 5 nM pEY (poly Glu-Tyr, Sigma, MO), was added in a 50 μl reaction solution containing 5 mM MgCl2, 5 mM MnCl2, 100 μM ATP, 25 mM Tris-HCl buffer pH 7.4, 0.05 mM Na3VO4, 0.004% TritonX-100, 2 mM DTT and EDTA-free protease inhibitor (Roche Molecular Biochemicals). This mixture was incubated with shaking at room temperature overnight to allow phosphorylation of the pEY substrate by the immobilized kinases. Following this incubation, 45 μl of this mixture was transferred to a streptavidin or avidin-coated NPT IPR plate coated with biotinylated anti-phosphotyrosine antibody (PY20, Zymed labs, CA) followed by incubation for 30 minutes at room temperature to allow the binding of the phosphorylated pEY substrate to the PY20 coated NPT plate. Following this binding step, 50 ng Sulfo-TAG labeled anti-phosphotyrosine in buffer containing 25 mM Tris-HCl buffer pH 7.4, 5 mM MgCl2, 0.05 mM Na3VO4, 0.004% TritonX-100, 2 mM DTT and 0.05% IgG was added followed by incubation at room temperature for 30 mm. The unbound reagents were removed by one time washing with water, and the TAG label was detected in presence of 150 μl IPR assay buffer (0.4 mM Gly-Gly buffer, pH 7.8, 1 mM EDTA, 0.1 M TPA). The ECL signals were measured using an imaging plate reader.

[1] = tested on: autophosphorylation (phosphotyrosine); assay: In vitro kinase library screen: autophosphorylation
Summary of the method: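 ECL read-out after 45 min with Sulfo-TAG anti-phosphotyrosine antibody. Before that, immobilized in vitro-translated biotinylated SYK or EphA7 autophosphorylated overnight at room temperature in Tris pH 7.4 containing 100 μM ATP plus Mn++ and Mg++ (5 mM each).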

- HTS signal (pEY): 952,661
- fold higher ECL signal than background produced by Mock (Luciferase) (pEY (poly Glu-Tyr); 0.5 to 1 μl of TnT reaction): 1000 to 1100 fold
- ECL signal (pEY (poly Glu-Tyr); +EDTA): 1,287
- ECL signal (pEY (poly Glu-Tyr); Control (Table 9)): 1,637,307
- ECL signal (pEY (poly Glu-Tyr); DNA 0.001 μg/5 μl): 4,432
- ECL signal (pEY (poly Glu-Tyr); DNA 0.003 μg/5 μl): 129,797
- ECL signal (pEY (poly Glu-Tyr); DNA 0.010 μg/5 μl): 1,440,103
- ECL signal (pEY (poly Glu-Tyr); DNA 0.020 μg/5 μl): 1,463,489
- ECL signal (pEY (poly Glu-Tyr); DNA 0.040 μg/5 μl): 1,523,121
- ECL signal (pEY (poly Glu-Tyr); DNA 0.060 μg/5 μl): 1,553,370
- ECL signal (pEY (poly Glu-Tyr); DNA 0.080 μg/5 μl): 1,608,671
- ECL signal (pEY (poly Glu-Tyr); DNA 0.100 μg/5 μl): 1,687,039
- ECL signal (pEY (poly Glu-Tyr); DNA 0.125 μg/5 μl): 1,626,868
- ECL signal (pEY (poly Glu-Tyr); complete reaction): 1,608,671
- ECL signal (pEY (poly Glu-Tyr); no Mg, no Mn): 2,851
- ECL signal (pEY (poly Glu-Tyr); plasmid +, no pEY): 1,309
- ECL signal (pEY (poly Glu-Tyr); plasmid +, no tRNA): 1,752
- ECL signal [1]: 1,350,546
B1: 4485050: IMAGE clone protein: Fert2, fer (fms/fps related) protein kinase, testis specific 2 (protein, UniProt P70451 1-823, looked up)
Tyrosine-protein kinase Fer: MGFGSDLKNSQEAVLKLQDWELRLLETVKKFMALRIKSDKEYAYTLQNLCNQVDKESTVQVNYVSNVSKSWLLMIQQTEQLSRIMKTHAEDLNSGPLHRLTMMIKDKQQVKKSYVGIHQQIEAEMIKVTKTELEKLKSSYRQLIKEMNSAKEKYKEALAKGKETEKAKERYDKATMKLHMLHNQYVLALKGAQLHQSQYYDTTLPLLLDSVQKMQEEMIKALKGIFDDYSQITSLVTEEIVNVHKEIQMSVEQIDPSTEYNNFIDVHRTTAAKEQEIEFDTSLLEENENLQANEIMWNNLTADSLQVMLKTLAEELTQTQQMLLHKEAAVLELEKRIEESFETCEKKSDIVLLLGQKQALEELKQSVQQLRCTEAKCAAQKALLEQKVQENDGKEPPPVVNYEEDARSVTSMERKERLSKFESIRHSIAGIIKSPKSVLGSSTQVCDVISVGERPLAEHDWYHGAIPRIEAQELLKQQGDFLVRESHGKPGEYVLSVYSDGQRRHFIIQFVDNLYRFEGTGFSNIPQLIDHHFNTKQVITKKSGVVLLNPIPKDKKWVLNHEDVSLGELLGKGNFGEVYKGTLKDKTPVAIKTCKEDLPQELKIKFLQEAKILKQYDHPNIVKLIGVCTQRQPVYIIMELVPGGDFLTFLRKRKDELKLKQLVRFSLDVAAGMLYLESKNCIHRDLAARNCLVGENNTLKISDFGMSRQEDGGVYSSSGLKQIPIKWTAPEALNYGRYSSESDVWSFGILLWETFSLGVCPYPGMTNQQAREQVERGYRMSAPQNCPEEVFTIMMKCWDYKPENRPKFNDLHKELTVIKKMIT

- HTS signal (pEY): 10,287
- ECL signal [1]: 84,706
B2: 3482498: IMAGE clone protein: Tek, endothelial-specific receptor tyrosine kinase (protein, UniProt Q02858 23-1122, looked up)
Angiopoietin-1 receptor: AMDLILINSLPLVSDAETSLTCIASGWHPHEPITIGRDFEALMNQHQDPLEVTQDVTREWAKKVVWKREKASKINGAYFCEGRVRGQAIRIRTMKMRQQASFLPATLTMTVDRGDNVNISFKKVLIKEEDAVIYKNGSFIHSVPRHEVPDILEVHLPHAQPQDAGVYSARYIGGNLFTSAFTRLIVRRCEAQKWGPDCSRPCTTCKNNGVCHEDTGECICPPGFMGRTCEKACEPHTFGRTCKERCSGPEGCKSYVFCLPDPYGCSCATGWRGLQCNEACPSGYYGPDCKLRCHCTNEEICDRFQGCLCSQGWQGLQCEKEGRPRMTPQIEDLPDHIEVNSGKFNPICKASGWPLPTSEEMTLVKPDGTVLQPNDFNYTDRFSVAIFTVNRVLPPDSGVWVCSVNTVAGMVEKPFNISVKVLPEPLHAPNVIDTGHNFAIINISSEPYFGDGPIKSKKLFYKPVNQAWKYIEVTNEIFTLNYLEPRTDYELCVQLARPGEGGEGHPGPVRRFTTASIGLPPPRGLSLLPKSQTALNLTWQPIFTNSEDEFYVEVERRSLQTTSDQQNIKVPGNLTSVLLSNLVPREQYTVRARVNTKAQGEWSEELRAWTLSDILPPQPENIKISNITDSTAMVSWTIVDGYSISSIIIRYKVQGKNEDQHIDVKIKNATVTQYQLKGLEPETTYHVDIFAENNIGSSNPAFSHELRTLPHSPASADLGGGKMLLIAILGSAGMTCITVLLAFLIMLQLKRANVQRRMAQAFQNREEPAVQFNSGTLALNRKAKNNPDPTIYPVLDWNDIKFQDVIGEGNFGQVLKARIKKDGLRMDAAIKRMKEYASKDDHRDFAGELEVLCKLGHHPNIINLLGACEHRGYLYLAIEYAPHGNLLDFLRKSRVLETDPAFAIANSTASTLSSQQLLHFAADVARGMDYLSQKQFIHRDLAARNILVGENYIAKIADFGLSRGQEVYVKKTMGRLPVRWMAIESLNYSVYTTNSDVWSYGVLLWEIVSLGGTPYCGMTCAELYEKLPQGYRLEKPLNCDDEVYDLMRQCWREKPYERPSFAQILVSLNRMLEERKTYVNTTLYEKFTYAGIDCSAEEAA

- HTS signal (pEY): 296,481
- ECL signal [1]: 180,059
B3: 2654352: IMAGE clone protein: Fgfr2, fibroblast growth factor receptor 2 (protein, UniProt P21803 22-821, looked up)
Fibroblast growth factor …: RPSFSLVEDTTLEPEEPPTKYQISQPEAYVVAPGESLELQCMLKDAAVISWTKDGVHLGPNNRTVLIGEYLQIKGATPRDSGLYACTAARTVDSETWIFMVNVTDAISSGDDEDDTDSSEDVVSENRSNQRAPYWTNTEKMEKRLHACPAANTVKFRCPAGGNPTSTMRWLKNGKEFKQEHRIGGYKVRNQHWSLIMESVVPSDKGNYTCLVENEYGSINHTYHLDVVERSPHRPILQAGLPANASTVVGGDVEFVCKVYSDAQPHIQWIKHVEKNGSKNGPDGLPYLKVLKAAGVNTTDKEIEVLYIRNVTFEDAGEYTCLAGNSIGISFHSAWLTVLPAPVREKEITASPDYLEIAIYCIGVFLIACMVVTVIFCRMKTTTKKPDFSSQPAVHKLTKRIPLRRQVTVSAESSSSMNSNTPLVRITTRLSSTADTPMLAGVSEYELPEDPKWEFPRDKLTLGKPLGEGCFGQVVMAEAVGIDKDKPKEAVTVAVKMLKDDATEKDLSDLVSEMEMMKMIGKHKNIINLLGACTQDGPLYVIVEYASKGNLREYLRARRPPGMEYSYDINRVPEEQMTFKDLVSCTYQLARGMEYLASQKCIHRDLAARNVLVTENNVMKIADFGLARDINNIDYYKKTTNGRLPVKWMAPEALFDRVYTHQSDVWSFGVLMWEIFTLGGSPYPGIPVEELFKLLKEGHRMDKPTNCTNELYMMMRDCWHAVPSQRPTFKQLVEDLDRILTLTTNEEYLDLTQPLEQYSPSYPDTSSSCSSGDDSVFSPDPMPYEPCLPQYPHINGSVKT

- HTS signal (pEY): 9,164
- ECL signal [1]: 88,966
B4: 2644960: IMAGE clone protein: Kit, kit oncogene (protein, UniProt P05532 25-979, looked up)
Mast/stem cell growth factor …: SQPSASPGEPSPPSIHPAQSELIVEAGDTLSLTCIDPDFVRWTFKTYFNEMVENKKNEWIQEKAEATRTGTYTCSNSNGLTSSIYVFVRDPAKLFLVGLPLFGKEDSDALVRCPLTDPQVSNYSLIECDGKSLPTDLTFVPNPKAGITIKNVKRAYHRLCVRCAAQRDGTWLHSDKFTLKVRAAIKAIPVVSVPETSHLLKKGDTFTVVCTIKDVSTSVNSMWLKMNPQPQHIAQVKHNSWHRGDFNYERQETLTISSARVDDSGVFMCYANNTFGSANVTTTLKVVEKGFINISPVKNTTVFVTDGENVDLVVEYEAYPKPEHQQWIYMNRTSANKGKDYVKSDNKSNIRYVNQLRLTRLKGTEGGTYTFLVSNSDASASVTFNVYVNTKPEILTYDRLINGMLQCVAEGFPEPTIDWYFCTGAEQRCTTPVSPVDVQVQNVSVSPFGKLVVQSSIDSSVFRHNGTVECKASNDVGKSSAFFNFAFKGNNKEQIQAHTLFTPLLIGFVVAAGAMGIIVMVLTYKYLQKPMYEVQWKVVEEINGNNYVYIDPTQLPYDHKWEFPRNRLSFGKTLGAGAFGKVVEATAYGLIKSDAAMTVAVKMLKPSAHLTEREALMSELKVLSYLGNHMNIVNLLGACTVGGPTLVITEYCCYGDLLNFLRRKRDSFIFSKQEEQAEAALYKNLLHSTEPSCDSSNEYMDMKPGVSYVVPTKTDKRRSARIDSYIERDVTPAIMEDDELALDLDDLLSFSYQVAKGMAFLASKNCIHRDLAARNILLTHGRITKICDFGLARDIRNDSNYVVKGNARLPVKWMAPESIFSCVYTFESDVWSYGIFLWELFSLGSSPYPGMPVDSKFYKMIKEGFRMVSPEHAPAEMYDVMKTCWDADPLKRPTFKQVVQLIEKQISDSTKHIYSNLANCNPNPENPVVVDHSVRVNSVGSSASSTQPLLVHEDA
